{"source": "patent US12686712B2", "about": "“Antibody, related use, pharmaceutical composition including method for diagnosing fungal infections, fungal infection diagnosis kit and method for treating fungal infections” (priority 2020, dated 2026)", "test_system": "C. neoformans (H99)", "experiment": "Dot Blot against intact cells using PL", "format": "binding, Cryptococcus neoformans", "conditions": "AcM 25 μg/ml; cells in 5 μg/ml PL diluted in base 10 from 10^7 cell/ml; 3 independent experiments", "description": "C. neoformans (H99) and Candida albicans in 10^7 cell/ml density until 10 cells/ml were suspended in poly-L-Lysine solution (5 μg/ml in PBS) and 10 μl were loaded in nitrocellulose membranes. Then, the same steps for ELISA were followed, however, 25 μg/ml concentration of AcM anti-chitooligomers. Membrane was cut and deposited in 96-well plates, to which 50 μl TMB was added and incubated for 30 minutes at 37° C. Volume was removed and transferred to a new plate, to which stop reaction was added with HCl 1 N and read with spectrophotometer at 450 nm.\nThe principle used in this trial was the same of ELISA and was based on the load presented by fungi. As nitrocellulose membrane has negative load, PL was used to check positive load to fungus, and consequently have bond to membrane.\nAs provided in FIG. 11, it was initially diluted in 5 μg/ml of PL at 10^7 cell/ml concentration and diluted in base 10. In this trial, it was evidenced that AcM HC6/DD11 was capable to bond to C. albicans up to 10^4 cell/ml order, which counters C. neoformans, that was identified to 10^6 cell/ml order. 3 independent experiments were performed to each trial. Example 16.7—Immunofluorescence", "data": [{"molecule": "HC6/DD11: murine IgM monoclonal antibody against chitooligomers (chitotriose); VH SEQ ID NO: 15, VL SEQ ID NO: 16 (antibody, listed as Mus musculus, V domains shown) VH: STGQVKLEESGGGLVQPGGSRKLSCAASGFTFSDYGMAWVRQAPGKGPEWVAFISNLAYSIYYADTVTGRFTISRENAKNTLYLEMSSLRSEDTAMYYCARDYYGSSYWYFDVWGAGTTVTAPC VL: ATNSCISRGEVTITCSASSSVSYMHWFQQKPGTSPKLWIYSTSNLASGVPARFSGSGSGTSYSLTISRMEAEDAATYYCQQRSSYPLTFGAGTKLELKRADAAPTVSLET", "values": [{"measurement": "cell density down to which fungus was identified (Dot Blot)", "result": "10^6 cell/ml"}]}]}
